Laboratory results: FireProtDB (doi:10.1016/j.str.2006.07.007)

B1: Azurin, P00282 (parent)
chain: MLRKLAAVSLLSLLSAPLLAAECSVDIQGNDQMQFNTNAITVDKSCKQFTVNLSHPGNLPKNVMGHNWVLSTAADMQGVVTDGMASGLDKDYLKPDDSRVIAHTKLIGSGEKDSVTFDVSKLKEGEQYMFFCTFPGHSALMKGTLTLK

Variants of: B1
Details: Pseudomonas aeruginosa (strain ATCC 15692 / DSM 22644 / CIP 104116 / JCM 14847 / LMG 12228 / 1C / PRS 101 / PAO1); pH 7; 25 °C; GdnHCl; Fluorescence; Phosphate 100 mM; reversible: Yes; structure 5AZU; whole UniProt chain shown

MLRKLAAVSLLSLLSAPLLAAECSADIQGNDQMQFNTNAITVDKSCKQFTVNLSHPGNLPKNVMGHNWVLSTAADMQGVVTDGMASGLDKDYLKPDDSRVIAHTKLIGSGEKDSVTFDVSKLKEGEQYMFFCTFPGHSALMKGTLTLK
ddG of mutation (higher = less stable): 0 kcal/mol
unfolding free energy: 5.98 kcal/mol

MLRKLAAVSLLSLLSAPLLAAECSVDIQGNDQMQFNTNAITVDKSCKQFTVNLSHPGNLPKNVMGHNWVLSTAADMQGVVTDGMASGLDKDYLKPDDSRVIGHTKLIGSGEKDSVTFDVSKLKEGEQYMFFCTFPGHSALMKGTLTLK
ddG of mutation (higher = less stable): 3.11 kcal/mol
unfolding free energy: 2.87 kcal/mol

MLRKLAAVSLLSLLSAPLLAAECSVDIQGNDQMQFNTNAITVDKSCKQFTVNLSHPGNLPKNVMGHNWVLSTAADMQGVVTDGMASGLDKDYLKPDDSRVIAHTKLIGSGEKDSVTFDVSKLKEGEQYMFFCTFPGHSALMKGTATLK
ddG of mutation (higher = less stable): 0.72 kcal/mol
unfolding free energy: 5.26 kcal/mol

MLRKLAAVSLLSLLSAPLLAAECSVDIQGNDQMQFNTNAITVDKSCKQFTVNLSHPGNLPKNVMGHNWVLSTAADMQGVGTDGMASGLDKDYLKPDDSRVIAHTKLIGSGEKDSVTFDVSKLKEGEQYMFFCTFPGHSALMKGTLTLK
ddG of mutation (higher = less stable): 3.11 kcal/mol
unfolding free energy: 2.87 kcal/mol

MLRKLAAVSLLSLLSAPLLAAECSVDAQGNDQMQFNTNAITVDKSCKQFTVNLSHPGNLPKNVMGHNWVLSTAADMQGVVTDGMASGLDKDYLKPDDSRVIAHTKLIGSGEKDSVTFDVSKLKEGEQYMFFCTFPGHSALMKGTLTLK
ddG of mutation (higher = less stable): 3.11 kcal/mol
unfolding free energy: 2.87 kcal/mol
